{"source": "paper PMC8569915", "about": "(ChemSusChem, 2021)", "target": "the molecule itself", "experiment": "SEC"}
{"protein": "Ac-GIAALEQKCAACEEKNAALEWKIAALEKKG-NH2 (cysteine pairing not given here)", "note": "[[2SCC-(I9CL12C)2]]", "values": [{"measurement": "stoichiometry N", "result": 2}]}
